This experiment deals with rabbit anti-GRK polyclonal antibody. In words: competitive inhibition ELISA: pAb pre-incubated with pGRK, then added to immobilised rGRK. (ELISA stands for enzyme-linked immunosorbent assay.)

B1: synthetic peptide pGRK (…) derived from human Granzyme K (peptide)
peptide: NSQSYYNGDPFITKDC
The molecule B1 returned a concentration giving complete inhibition of antibody binding of 10 ng/µL.

For the origin of these results see patent US20060110774A1.
